What all share (assay): Kd (EC50 corrected by depletion factor)
One data set addresses CPSF4 (UniProt O95639). An outline of the steps: (§1)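 HEK293-FT lysate (2.5 mg protein/well) was treated with free RNA oligos (0 nM to 30 μM) for 1 h at 4°C, then with the same oligos on NHS-Sepharose beads for 30 min at 4°C. Bound proteins were quantified by label-free LC-MS/MS relative to the control. EC50 came from a four-parameter log-logistic fit, and Kd is EC50 times a protein-dependent depletion factor.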

A further data set deals with T1, HNRNPF (UniProt P52597).
T1 sequence: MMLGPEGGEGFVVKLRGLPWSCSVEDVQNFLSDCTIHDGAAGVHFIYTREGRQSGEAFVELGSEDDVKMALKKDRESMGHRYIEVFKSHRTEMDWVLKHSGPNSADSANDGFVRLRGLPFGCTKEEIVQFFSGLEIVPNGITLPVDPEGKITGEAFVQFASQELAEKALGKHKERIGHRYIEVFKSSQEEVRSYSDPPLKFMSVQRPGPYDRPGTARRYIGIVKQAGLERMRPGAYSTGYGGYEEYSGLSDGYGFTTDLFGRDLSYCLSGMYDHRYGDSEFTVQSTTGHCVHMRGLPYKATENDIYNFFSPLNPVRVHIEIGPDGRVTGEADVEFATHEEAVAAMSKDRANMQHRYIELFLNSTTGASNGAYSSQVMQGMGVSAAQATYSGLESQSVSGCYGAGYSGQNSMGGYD
Summed up:
as §1

In a further data set the target is IGF2BP1 (UniProt Q9NZI8). An outline of the steps:
as §1

Another data set deals with HNRNPK (UniProt P61978). An outline of the steps:
as §1

The next data set has as its target T2, YTHDC2 (UniProt Q9H6S0).
T2 sequence: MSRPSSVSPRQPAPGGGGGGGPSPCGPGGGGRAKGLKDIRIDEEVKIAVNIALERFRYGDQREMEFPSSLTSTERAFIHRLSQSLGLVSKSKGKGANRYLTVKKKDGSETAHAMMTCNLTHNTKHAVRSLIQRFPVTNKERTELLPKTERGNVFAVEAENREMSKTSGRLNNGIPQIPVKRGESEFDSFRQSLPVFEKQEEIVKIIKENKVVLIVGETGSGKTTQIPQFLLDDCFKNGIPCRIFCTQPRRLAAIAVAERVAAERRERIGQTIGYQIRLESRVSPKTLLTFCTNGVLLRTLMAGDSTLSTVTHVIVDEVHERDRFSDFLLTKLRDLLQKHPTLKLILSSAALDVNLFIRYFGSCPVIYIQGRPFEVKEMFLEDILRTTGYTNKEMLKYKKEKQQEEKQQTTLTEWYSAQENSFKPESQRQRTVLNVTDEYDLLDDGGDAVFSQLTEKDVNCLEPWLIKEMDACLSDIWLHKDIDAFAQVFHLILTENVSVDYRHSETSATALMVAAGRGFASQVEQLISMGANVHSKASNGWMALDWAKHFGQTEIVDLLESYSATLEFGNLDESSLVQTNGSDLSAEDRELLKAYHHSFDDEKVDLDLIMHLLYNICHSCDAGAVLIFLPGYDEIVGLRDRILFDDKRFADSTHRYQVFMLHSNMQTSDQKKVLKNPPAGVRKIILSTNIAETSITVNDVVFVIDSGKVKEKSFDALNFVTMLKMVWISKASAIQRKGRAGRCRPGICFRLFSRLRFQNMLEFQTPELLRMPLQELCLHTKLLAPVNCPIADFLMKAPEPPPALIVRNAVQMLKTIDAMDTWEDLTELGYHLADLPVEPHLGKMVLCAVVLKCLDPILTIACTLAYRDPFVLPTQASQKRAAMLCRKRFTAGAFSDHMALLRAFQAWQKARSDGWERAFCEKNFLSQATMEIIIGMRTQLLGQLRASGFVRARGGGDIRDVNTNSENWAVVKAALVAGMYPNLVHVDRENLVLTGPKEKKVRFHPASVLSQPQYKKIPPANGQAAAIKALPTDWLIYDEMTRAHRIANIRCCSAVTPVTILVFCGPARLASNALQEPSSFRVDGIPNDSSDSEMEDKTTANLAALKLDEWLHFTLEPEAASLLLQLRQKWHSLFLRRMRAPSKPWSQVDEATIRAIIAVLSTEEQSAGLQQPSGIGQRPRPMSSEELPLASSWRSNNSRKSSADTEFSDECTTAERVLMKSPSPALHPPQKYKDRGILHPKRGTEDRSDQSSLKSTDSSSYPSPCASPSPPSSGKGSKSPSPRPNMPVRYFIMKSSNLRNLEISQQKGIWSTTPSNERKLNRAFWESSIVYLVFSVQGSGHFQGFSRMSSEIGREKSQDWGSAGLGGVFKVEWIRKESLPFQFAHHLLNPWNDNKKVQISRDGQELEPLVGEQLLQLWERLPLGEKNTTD
Summed up: as §1

The target of a further data set is MRPL14 (UniProt Q6P1L8). An outline of the steps:
as §1

In the next data set the target is RPS3A (UniProt P61247). Summed up:
as §1

For another data set, the target named is RPS28 (UniProt P62857). Summed up:
as §1

A further data set deals with T3, LSM6 (UniProt P62312).
T3 sequence: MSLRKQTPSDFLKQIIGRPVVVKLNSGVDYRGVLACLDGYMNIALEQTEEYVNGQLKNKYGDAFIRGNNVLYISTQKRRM
Summed up:
as §1

The record followed here is the supplement of paper PMC6379048.

CPSF4, sequence (O95639 whole entry): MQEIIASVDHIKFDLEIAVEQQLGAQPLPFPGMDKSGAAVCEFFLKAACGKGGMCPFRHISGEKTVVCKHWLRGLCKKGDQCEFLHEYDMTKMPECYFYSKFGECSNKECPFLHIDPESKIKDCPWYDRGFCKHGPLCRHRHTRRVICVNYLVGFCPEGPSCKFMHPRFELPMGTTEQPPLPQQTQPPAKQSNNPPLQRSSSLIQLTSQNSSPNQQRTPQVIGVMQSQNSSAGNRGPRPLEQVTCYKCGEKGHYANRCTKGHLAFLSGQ
IGF2BP1, sequence (Q9NZI8 whole entry): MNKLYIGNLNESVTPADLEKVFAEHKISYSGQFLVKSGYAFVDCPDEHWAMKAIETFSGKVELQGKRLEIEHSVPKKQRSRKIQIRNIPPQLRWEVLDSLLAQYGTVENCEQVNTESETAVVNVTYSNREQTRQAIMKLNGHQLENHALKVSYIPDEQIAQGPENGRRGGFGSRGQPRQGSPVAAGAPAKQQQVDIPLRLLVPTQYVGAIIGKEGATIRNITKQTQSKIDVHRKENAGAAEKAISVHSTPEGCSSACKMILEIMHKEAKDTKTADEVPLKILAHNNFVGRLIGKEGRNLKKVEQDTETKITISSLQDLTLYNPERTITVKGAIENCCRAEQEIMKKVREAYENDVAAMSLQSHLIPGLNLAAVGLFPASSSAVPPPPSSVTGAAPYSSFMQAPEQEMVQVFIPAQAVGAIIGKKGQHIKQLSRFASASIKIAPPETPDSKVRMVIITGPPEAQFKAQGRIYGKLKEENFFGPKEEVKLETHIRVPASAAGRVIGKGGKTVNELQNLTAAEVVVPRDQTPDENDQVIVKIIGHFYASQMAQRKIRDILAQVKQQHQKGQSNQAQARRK

With AAUAAA, the Kd in the data set with CPSF4 is 0.00595 µM; with HNRNPF it was 6.29 µM.
As to CUGUCCU, the Kd with IGF2BP1 worked out at 1.24 µM; with HNRNPK, 1.63 µM; in the data set with YTHDC2 it was 0.986 µM; in the data set with MRPL14, 0.0535 µM; with RPS3A, 0.0642 µM; in the data set with RPS28, 0.115 µM.
Turning to UAUUUAU, the Kd with LSM6 came to 0.275 µM. This counts as sub-micromolar.

The term Kd denotes the equilibrium constant for the complex coming apart.
